Results as given in patent US9611296B2, “Peptides that bind to amino-truncated amyloid-beta-peptide and use of said peptides” (FORSCHUNGSZENTRUM JUELICH GMBH, priority 2012, dated 2017).
Square brackets hold non-standard residues; d marks the D form. Ends that are not written are not given here.

Target: T1, Aβ plaques (Homo sapiens, UniProt P05067)
T1 construct: have an increased Aβ 1-42 expression and plaque formation; from tissue; host or cells: frontal brain slices of transgenic Tg2576 mice aged 10 to 11 months
T1 sequence (P05067 672-713 limits assumed): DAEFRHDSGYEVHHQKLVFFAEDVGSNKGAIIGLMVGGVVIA
Test: Ex vivo histological staining of plaques in frontal brain slices of transgenic Tg2576 mice with FITC-labelled D-peptides (fluorescence microscopy, Congo red control)
Type: binding
Conditions: frontal brain slices (cortex) of Tg2576 mice aged 10 to 11 months; for region of the plaques stained (more intensely): FITC-labelled peptide
Excerpt: The binding properties of the available peptides to Aβ plaques were investigated. For staining frontal brain slices, use was made of preparations of transgenic Tg2576 mice aged from 10 to 11 months, which due to the human APP gene bearing the Swedish mutation have an increased Aβ 1-42 expression and plaque formation. In these mice, it was also possible to detect AβpE3-x as a plaque constituent.
For the tests, the peptides were synthetically produced and labelled by a commercial supplier, A test was then carried out, ex vivo, to determine the regions of the plaques to which binding had mainly taken place. It must be assumed here that Aβ plaques consist of different Aβ species, such as, for example, Aβ1-40, 1-42 and AβpE3-x.
All the peptides are combined with fluorescein isothiocyanate (FITC) for detection by means of fluorescence microscopy.
As a further control, the same tests were carried out after Congo red staining, which served to verify the plaque structures (bottom image in each case). It must be assumed that the plaques are composed of different Aβ isoforms (Aβ 1-40, 1-42, AβpE3-x). Slices from wild-type animals without plaque formation were also treated. In these tests, no Congo red or fluorescein fluorescence could be detected (data not shown).

| Sequence | region of the plaques stained (more intensely) | type of plaques stained by the peptide |
| --- | --- | --- |
| AGERLKFIDEHV ([dA]G[dE][dR][dL][dK][dF][dI][dD][dE][dH][dV]) [D6] | ring-shaped structures around the inner core of the plaques were stained more intensely | only plaques having a relatively dense structure, consisting of Aβ fibrils, were stained, but not small and diffuse plaques |
| NGAPNKIPRDRE ([dN]G[dA][dP][dN][dK][dI][dP][dR][dD][dR][dE]) [D5, dodecameric D-peptide selected by mirror image phage display against aggregation-nucleus-free AβpE3-x] | ring-shaped structures around the inner core of the plaques were stained more intensely | only plaques having a relatively dense structure, consisting of Aβ fibrils, were stained, but not small and diffuse plaques |
| HTRFEYYVYHMS ([dH][dT][dR][dF][dE][dY][dY][dV][dY][dH][dM][dS]) [D7] | at the inner core of the plaques | stained only dense structures |
| KMEHPNHPPPQR ([dK][dM][dE][dH][dP][dN][dH][dP][dP][dP][dQ][dR]) [D4, dodecameric D-peptide selected by mirror image phage display against aggregation-nucleus-free AβpE3-x] | ring-shaped structures around the inner core of the plaques were stained more intensely | only plaques having a relatively dense structure, consisting of Aβ fibrils, were stained, but not small and diffuse plaques |
